Reference: patent US11653679B2, “High-purity steviol glycosides” (PureCircle Sdn Bhd, priority 2014, dated 2023)
Where two headings read alike, the source gives them in different places.

Key:
Format in all cases: biochemical
[1] = Rubusoside conversion products with UGTSL, UGTSL2, UGTLB by LCMS (Example 33); settings: reaction time UGTSL2 2 hrs, UGTLB 5 hrs, UGTSL 45 hrs
Description: (§1) Conversion of stevioside with UGTSL and UGTSL2 was conducted in similar manner to Example 28, and the conversion of rubusoside with UGTSL and UGTSL2 was conducted similarly to Example 29. Conversions of rubusoside and stevioside with UGTLB was conducted similarly to Example 32.
(§2) The reaction mixtures were analyzed by LCMS to determine all reaction products.

[2] = LC-MS of reaction mixtures of GI No. 460409128 with Rebaudioside A (Example 23)
Description: The reaction mixtures representing GI No. 460409128, particularly the sample “12400 S115N05A7 T24h 130627ABA” of EXAMPLE 20 (hereinafter S115N05A7), and the sample “12400 S129N04 T45h 130712ABA” of EXAMPLE 22 (hereinafter S129N04) were additionally assayed by LC-MS to identify the unknown glycosides. An Agilent 1200 series HPLC system, equipped with binary pump (G1312B), autosampler (G1367D), thermostatted column compartment (G1316B), DAD detector (G1315C), connected with Agilent 6110A MSD, and interfaced with “LC/MSD Chemstation” software, was used.
The compound observed on LCMS system at 3.5 min, corresponds to compound “Unknown@4.508” in sample “S115N05A7” (EXAMPLE 20), and compound “Unknown@RT4.526” in sample “S129N04” (EXAMPLE 22).
The ratio of these compounds and the LCMS chromatograms are provided below.

[3] = Activity for Rubusoside to Rebaudioside E conversion with UGTSL, UGTSL2, UGTLB (Examples 29, 32); settings: reaction time UGTSL 45 h., UGTSL2 2 h., 600 μL lysate, based on initial concentration of Rubusoside
Description: Activity tests were performed at 3 mL scale with 600 μL of lysate for the transformation of Rubusoside using 0.5 mM of substrate, 2.5 mM of UDP-Glucose and 3 mM MgCl2 in 50 mM Sodium Phosphate buffer at pH 7.2. Samples were taken and analyzed by HPLC. The HPLC assay was performed as described in EXAMPLE 20.
Activity tests were performed at 3 mL scale with 600 μL of lysate for the transformation of Rubusoside using 0.5 mM of substrate, 2.5 mM of UDP-Glucose and 3 mM MgCl2 in 50 mM Sodium Phosphate buffer at pH 7.2. Samples were taken and analyzed by HPLC. The corresponding chromatograms are depicted in FIG. 63b.

[4] = Activity for Stevioside to Rebaudioside E conversion with UGTSL, UGTSL2, UGTLB (Examples 28, 32); settings: reaction time UGTSL 22 h., UGTSL2 2 h., 600 μL lysate, based on initial concentration of Stevioside
Description: Activity tests were performed at 3 mL scale with 600 μL of lysate for the transformation of Stevioside using 0.5 mM of substrate, 2.5 mM of UDP-Glucose and 3 mM MgCl2 in 50 mM Sodium Phosphate buffer at pH 7.2. Samples were taken and analyzed by HPLC. HPLC Analysis. The HPLC assay was performed as described in EXAMPLE 20.
Activity tests were performed at 3 mL scale with 600 μL of lysate for the transformation of Stevioside using 0.5 mM of substrate, 2.5 mM of UDP-Glucose and 3 mM MgCl2 in 50 mM Sodium Phosphate buffer at pH 7.2. Samples were taken and analyzed by HPLC. The corresponding chromatograms are depicted in FIG. 63a.

[5] = Catalytic test Rebaudioside A to Rebaudioside D with in-vitro expressed UDP-glucosyltransferases (Examples 20, 21), HPLC
Description: The prepared expression medium mix was added to the plasmid solution and the solution was allowed to incubate at 30° C. for 3 hours while mixing the mixture every 45 minutes. 5 μL of the mixture was frozen whereas the remainder was used for the catalytic test for the conversion of Rebaudioside A to Rebaudioside D.
430 μL of a reaction mixture containing 0.5 mM Rebaudioside A, 3 mM MgCl2, 50 mM phosphate buffer (pH7.2) and 2.5 mM UDP-glucose was added to a 1.5 mL sterile microtube. 52 μl of the enzyme expression medium was added and the resulting mixture was allowed to react at 30° C. for 24 hours. 125 μL samples were taken after 2 hours, 16 hours and 24 hours and added to a 115 μL of 60% methanol and 10 μL of 2 N H2SO4. The quenched sample was centrifuged at 18,000 g for 2 minutes at RT. 200 μL was transferred to an HPLC vial and analyzed.
The HPLC assay was performed as follows:
430 μL of a reaction mixture containing 0.5 mM Rebaudioside A, 3 mM MgCl2, 50 mM phosphate buffer (pH7.2) and 2.5 mM UDP-glucose was added to a 1.5 mL sterile microtube. 52 μL of the enzyme expression medium was added and the resulting mixture was allowed to react at 30° C. for 24 hours. 125 μL samples were taken after 2 hours, 16 hours and 24 hours and added to a 115 μL of 60% methanol and 10 μL of 2 N H2SO4. The quenched sample was centrifuged at 18,000 g for 2 minutes at RT. 200 μL was transferred to HPLC vial and analyzed.
(§3) The HPLC assay was performed as described in EXAMPLE 20.

[6] = Stevioside conversion products with UGTSL, UGTSL2, UGTLB by LCMS (Example 33); settings: reaction time UGTSL2 2 hrs, UGTLB 2 hrs, UGTSL 22 hrs
Description: as §1, §2

[7] = Activity of in-vivo produced enzymes for transformation of Rebaudioside A (Example 22)
Description: Activity tests were performed at 5 mL scale with 1,000 μL of thawed lysate for the transformation of Rebaudioside A using 0.5 mM of substrate, 2.5 mM of UDP-Glucose and 3 mM MgCl2 in 50 mM Sodium Phosphate buffer at pH 7.2. Samples were taken and analyzed by HPLC.
as §3

[8] = 0.5 mM substrate, 2.5 mM UDP-Glucose, pH 7.2
[9] = 0.5 mM Rebaudioside A, 30° C., HPLC

B1: gi460409128_XP_004249992.1: cyanidin-3-O-glucoside 2-O-glucuronosyltransferase-like [Solanum lycopersicum], SEQ ID NO:5; S129N04 is its Example 22 reaction sample (protein, listed as Solanum lycopersicum)
chain: MSPKLHKELFFHSLYKKTRSNHTMATLKVLMFPFLAYGHISPYLNVAKKLADRGFLIYFCSTPINLKSTIEKIPEKYADSIHLIELHLPELPQLPPHYHTTNGLPPNLNQVLQKALKMSKPNFSKILQNLKPDLVIYDILQRWAKHVANEQNIPAVKLLTSGAAVFSYFFNVLKKPGVEFPFPGIYLRKIEQVRLSEMMSKSDKEKELEDDDDDDDLLVDGNMQIMLMSTSRTIEAKYIDFCTALTNWKVVPVGPPVQDLITNDVDDMELIDWLGTKDENSTVFVSFGSEYFLSKEDMEEVAFALELSNVNFIWVARFPKGEERNLEDALPKGFLERIGERGRVLDKFAPQPRILNHPSTGGFISHCGWNSAMESIDFGVPIIAMPMHLDQPMNARLIVELGVAVEIVRDDDGKIHRGEIAETLKGVITGKTGEKLRAKVRDISKNLKTIRDEEMDAAAEELIQLCRNGN
[1]
  LC-MS, peak area ratio (%): REb E: 35.88%
  LC-MS, peak area ratio (%): Reb D: 3.45%
  LC-MS, peak area ratio (%): Rub: 7.82%
  LC-MS, peak area ratio (%): Stev: 2.37%
  LC-MS, peak area ratio (%): Unknown peak #1 (MW804) RT 30.70 min: 20.38%
  LC-MS, peak area ratio (%): Unknown peak #2 (MW804) RT 49.50 min: 27.75%
  LC-MS, peak area ratio (%): Unknown peak #3 (MW804) RT 50.40 min: 2.35%
[2]
  Steviol glycoside conversion in reaction mixture, Reb A: 49.00 % area
  Steviol glycoside conversion in reaction mixture, Reb D: 23.73 % area
  Steviol glycoside conversion in reaction mixture, Reb UNK (reb D2): 21.22 % area
  Steviol glycoside conversion in reaction mixture, Unknown@RT3.5 (reb M2): 6.05 % area
[2]; listed as S115N05A7
  Steviol glycoside conversion in reaction mixture, Reb A: 53.24 % area
  Steviol glycoside conversion in reaction mixture, Reb D: 20.35 % area
  Steviol glycoside conversion in reaction mixture, Reb UNK (reb D2): 19.93 % area
  Steviol glycoside conversion in reaction mixture, Unknown@RT3.5 (reb M2): 6.47 % area
[3]; 0.5 mM Rubusoside
  Rebaudioside E formation: 27%
[3]; [8]
  Rubusoside conv. (reaction time): 70% (45 h.)
[4]; 0.5 mM Stevioside
  Rebaudioside E formation: 46%
[4]; [8]
  Stevioside conv. (reaction time): 74% (22 h.)
[5]; [9]
  Steviol glycoside conversion in reaction mixture, Reb A: 46.7 % area
  Steviol glycoside conversion in reaction mixture, Reb UNK (later identified as reb D2): 23.3 % area
[5]; in-vitro expressed enzyme
  Conversion RebA to RebD: Active
[6]
  LC-MS, peak area ratio (%): Reb D: 0.54%
  LC-MS, peak area ratio (%): Reb E: 49.68%
  LC-MS, peak area ratio (%): Stev: 25.24%
  LC-MS, peak area ratio (%): Unknown peak #1 (MW966) RT = 22.60 min: 3.97%
  LC-MS, peak area ratio (%): Unknown peak #2 (MW966) RT = 26.50 min: 20.56%
[7]; 0.5 mM, in-vivo produced enzyme lysate
  Conversion after 45 hrs.: 62.1%
[7]; after 45 hrs.
  Reb D selectivity: 43.6%
